We go through two molecules from patent publication US20260097113A1 (Pfizer, published 2026).

Assay [1] addresses RSV A + RSV B bivalent composition (RSV subtype A; RSV subtype B). The assay is described as follows: AM14 Fab titration by SEC; High-Slow 1 cycle; T0. (In general: SEC sorts molecules by how far they enter the pores of the column.)
Assay [2] has the same target. The assay can be described thus: AM14 Fab titration by SEC; Target cycle; 1 M 25°C.
Assay [3] shares this target. The assay can be described thus: AM14 Fab titration by SEC; Low-Fast cycle; 1 M 40°C.
The target is the same in assay [4]. The assay can be described thus: AM14 Fab titration by SEC; High-Slow 2 cycle; 1 M 25°C.
Assay [5] has the same target. The assay can be described thus: AM14 Fab titration by SEC; Target cycle; 1 M 25°C (second value).
Assay [6] has the same target. The assay can be described thus: AM14 Fab titration by SEC; Target cycle; 1 M 40°C (second value).
Assay [7] shares this target. The assay is described as follows: AM14 Fab titration by SEC; Low-Fast cycle; 3 M 25°C (second value).
Assay [8] has the same target. The assay is described as follows: AM14 Fab titration by SEC; Low-Fast cycle; 1 M 2-8°C (second value).
Assay [9] shares this target. The assay can be described thus: AM14 Fab titration by SEC; composition of Table 14; Drying Temp + Ramp Aggressive cycle.
The target in assay [10] is T1, RSV F protein of subtype A comprising a polypeptide of SEQ ID NO: 1 and a polypeptide of SEQ ID NO: 2 (RSV subtype A, UniProt P11209 137-513; P03420 26-109).
T1 construct: Stabilized prefusion F trimer made of three F2-F1 heterodimers; Produced recombinantly in CHO cells; also called RSV A; RSVA
T1 chain 1: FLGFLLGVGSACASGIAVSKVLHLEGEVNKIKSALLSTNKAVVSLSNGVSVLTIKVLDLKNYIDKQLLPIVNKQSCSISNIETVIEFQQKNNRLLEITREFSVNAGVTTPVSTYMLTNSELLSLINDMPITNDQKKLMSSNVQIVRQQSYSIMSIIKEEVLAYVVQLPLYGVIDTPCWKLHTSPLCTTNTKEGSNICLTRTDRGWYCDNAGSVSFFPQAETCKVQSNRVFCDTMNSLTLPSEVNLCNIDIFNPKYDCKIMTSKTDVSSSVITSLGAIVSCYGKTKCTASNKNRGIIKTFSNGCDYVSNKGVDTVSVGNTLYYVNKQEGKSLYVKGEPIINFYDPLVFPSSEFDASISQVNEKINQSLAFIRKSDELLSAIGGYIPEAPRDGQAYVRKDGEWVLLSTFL
T1 chain 2: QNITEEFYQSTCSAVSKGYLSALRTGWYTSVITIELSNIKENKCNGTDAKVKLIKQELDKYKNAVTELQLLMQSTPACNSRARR
The assay can be described thus: AM14 ELISA; F3 (pH 8, 0 mM NaCl, 9% sucrose); T0. In general terms: ELISA stands for enzyme-linked immunosorbent assay.

Assay [11] has as its target T1, RSV F protein of subtype A comprising a …. The assay is described as follows: AM14 ELISA; F2 (pH 8, 0 mM NaCl, 0% sucrose); 2 wk 5°C.
Assay [12] has the same target. The assay is described as follows: AM14 ELISA; F3 (pH 8, 0 mM NaCl, 9% sucrose); 2 wk 5°C.
Assay [13] has the same target. The assay is described as follows: AM14 ELISA; F15 (pH 6, 0 mM NaCl, 9% sucrose); 2 wk 5°C.
Assay [14] shares this target. The assay can be described thus: AM14 ELISA; F1 (pH 8, 100 mM NaCl, 0% sucrose); 1 wk 5°C.
The target is the same in assay [15]. The assay is described as follows: AM14 ELISA; F10 (pH 7, 50 mM NaCl, 4.5% sucrose); 1 wk 25°C.
Assay [16] shares this target. The assay is described as follows: AM14 ELISA; F12 (pH 8, 100 mM NaCl, 9.0% sucrose); 2 wk 5°C.
For assay [17] the target is unchanged. The assay can be described thus: AM14 ELISA; F12 (pH 8, 100 mM NaCl, 9.0% sucrose); 1 wk 25°C.
Assay [18] shares this target. The assay is described as follows: AM14 ELISA; F17 (pH 7, 50 mM NaCl, 4.5% trehalose); 2 wk 5°C.

As for AM14 Fab, the Prefusion Content (%) was found to be 64% in assay [1]; 65% in assay [2]; 65% in [3]; 72% in assay [4]; 65% in assay [5]; 66% in [6]. Further, the Prefusion Content (%) is 68% in assay [7], 53% in [8] and 67% in [9].

B1: AM14 (trimeric prefusion specific antibody of the AM14 ELISA) (antibody, V domains shown)
VH: EVQLVESGGGVVQPGRSLRLSCAASGFSFSHYAMHWVRQAPGKGLEWVAVISYDGENTYYADSVKGRFSISRDNSKNTVSLQMNSLRPEDTALYYCARDRIVDDYYYYGMDVWGQGATVTVSS
VL: DIQMTQSPSSLSASVGDRVTITCQASQDIKKYLNWYHQKPGKVPELLMHDASNLETGVPSRFSGRGSGTDFTLTISSLQPEDIGTYYCQQYDNLPPLTFGGGTKVEIKR
notes: Antibody as used in the AM14 ELISA, detected with an HRP-labeled secondary antibody
As to B1, the “AM14 prefusion content (%), relative to standard” value in [10] is 95%; in assay [11], 75%; in [12], 70%; in assay [13], 84%; in assay [14], 96%; in [15], 82%. The “AM14 prefusion content (%), relative to standard” value worked out at 72% in assay [16], 82% in [17] and 64% in assay [18].
